For assay [1], the target named is FlgY_(15–172), FlgY without the predicted signal peptide (C. jejuni 81-176). Description: SEC; Superdex 200 Increase 10/300 GL; 20 mM Tris-HCl pH 8.0, 300 mM NaCl. In general terms: In gel filtration, larger molecules generally elute earlier.
The target in assay [2] is FlgY_(90–172) (C. jejuni 81-176). The description is as above.
Assay [3] concerns the target T1, PflA_(16–788)-Strep (C. jejuni 81-176, UniProt Q46092 16-788).
T1 chain: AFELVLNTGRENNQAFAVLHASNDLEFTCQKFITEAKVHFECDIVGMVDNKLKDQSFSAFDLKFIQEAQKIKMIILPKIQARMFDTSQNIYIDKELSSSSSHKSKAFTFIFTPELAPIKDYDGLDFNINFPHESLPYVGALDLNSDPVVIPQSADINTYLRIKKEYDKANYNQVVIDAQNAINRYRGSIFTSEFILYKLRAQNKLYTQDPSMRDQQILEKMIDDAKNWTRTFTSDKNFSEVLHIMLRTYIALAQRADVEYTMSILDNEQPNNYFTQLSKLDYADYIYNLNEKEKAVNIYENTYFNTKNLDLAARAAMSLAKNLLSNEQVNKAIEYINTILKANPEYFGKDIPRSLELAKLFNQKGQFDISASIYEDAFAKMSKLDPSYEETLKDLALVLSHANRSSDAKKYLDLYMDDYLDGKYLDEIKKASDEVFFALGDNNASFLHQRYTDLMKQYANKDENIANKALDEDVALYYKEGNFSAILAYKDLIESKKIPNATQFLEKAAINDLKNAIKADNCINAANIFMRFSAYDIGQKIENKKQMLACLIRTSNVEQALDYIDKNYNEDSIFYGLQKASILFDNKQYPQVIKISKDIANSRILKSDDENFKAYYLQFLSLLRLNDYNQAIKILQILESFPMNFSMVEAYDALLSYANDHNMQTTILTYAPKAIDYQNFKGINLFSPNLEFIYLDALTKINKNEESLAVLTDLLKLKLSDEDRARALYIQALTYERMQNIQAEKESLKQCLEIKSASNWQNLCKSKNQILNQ
Kind of assay: MST.

The target of assay [4] is T2, PflB_(113–820) (C. jejuni 81-176, UniProt A0A6F9L7Y3 113-820).
T2 construct: PflB of C. jejuni 81-176, residues 113-820; 178-820 resolved in the cryo-EM structure; also called PflB_(178–820) (the part built in the model)
T2 sequence: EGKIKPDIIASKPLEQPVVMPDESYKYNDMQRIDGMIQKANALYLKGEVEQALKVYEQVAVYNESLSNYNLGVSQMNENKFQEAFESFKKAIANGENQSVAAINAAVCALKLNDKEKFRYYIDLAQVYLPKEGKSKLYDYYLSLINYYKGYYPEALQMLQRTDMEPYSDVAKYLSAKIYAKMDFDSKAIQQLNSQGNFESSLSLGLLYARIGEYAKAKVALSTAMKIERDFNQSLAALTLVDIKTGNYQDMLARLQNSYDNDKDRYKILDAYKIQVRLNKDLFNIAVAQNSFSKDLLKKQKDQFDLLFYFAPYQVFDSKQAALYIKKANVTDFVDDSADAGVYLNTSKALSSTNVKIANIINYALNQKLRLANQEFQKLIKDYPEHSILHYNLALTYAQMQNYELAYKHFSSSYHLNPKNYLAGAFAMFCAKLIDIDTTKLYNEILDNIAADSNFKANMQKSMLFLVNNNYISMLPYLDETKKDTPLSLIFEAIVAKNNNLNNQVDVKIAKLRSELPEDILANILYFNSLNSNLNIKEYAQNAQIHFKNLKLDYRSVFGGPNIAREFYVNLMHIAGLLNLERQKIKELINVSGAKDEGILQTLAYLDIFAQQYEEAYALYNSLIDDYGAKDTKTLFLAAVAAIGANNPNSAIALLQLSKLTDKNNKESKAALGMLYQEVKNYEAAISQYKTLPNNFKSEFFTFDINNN
Description: cryo-EM structure; single-particle cryo-EM of the purified PflA16-788 and PflB113-820 complex at 0.4 mg/ml; 3.23 Å. The conditions noted are these: both partners purified.

By stoichiometry N is commonly meant a count of units in the complex or per binding partner. For the molecule “FlgY_(15–172), FlgY without the predicted signal peptide (domain or fragment)”, the stoichiometry N in assay [1] is 2.
Consider FlgY_(90–172) (domain or fragment), for which the stoichiometry N in assay [2] is 2.

B1: FlgY_(15–172), FlgY without the predicted signal peptide (domain or fragment)
chain: VFGAEQDCEQYFEARKAQIELQTREFDEARQSLEAYKASFEALQKERLENLEKKEAEVNATLAKIEELKLENARLVEEQQKILNSINDKTQGRVKEIYSQMKDAAIADVLSQMDAEDASKIMLSLESRKISGVLSKMDPKKASELTLLLKNLDNNASN
Broadly, the Kd is the free concentration of one partner at which half of the binding sites on the other are occupied at equilibrium, for simple one-to-one binding. A low value points to higher affinity. In the case of B1, in assay [3], the dissociation constant Kd stood at 3.5 µM.

B2: PflA_(16–788) of the purified PflA_(16–788) and PflB_(113–820) complex (domain or fragment)
chain: AFELVLNTGRENNQAFAVLHASNDLEFTCQKFITEAKVHFECDIVGMVDNKLKDQSFSAFDLKFIQEAQKIKMIILPKIQARMFDTSQNIYIDKELSSSSSHKSKAFTFIFTPELAPIKDYDGLDFNINFPHESLPYVGALDLNSDPVVIPQSADINTYLRIKKEYDKANYNQVVIDAQNAINRYRGSIFTSEFILYKLRAQNKLYTQDPSMRDQQILEKMIDDAKNWTRTFTSDKNFSEVLHIMLRTYIALAQRADVEYTMSILDNEQPNNYFTQLSKLDYADYIYNLNEKEKAVNIYENTYFNTKNLDLAARAAMSLAKNLLSNEQVNKAIEYINTILKANPEYFGKDIPRSLELAKLFNQKGQFDISASIYEDAFAKMSKLDPSYEETLKDLALVLSHANRSSDAKKYLDLYMDDYLDGKYLDEIKKASDEVFFALGDNNASFLHQRYTDLMKQYANKDENIANKALDEDVALYYKEGNFSAILAYKDLIESKKIPNATQFLEKAAINDLKNAIKADNCINAANIFMRFSAYDIGQKIENKKQMLACLIRTSNVEQALDYIDKNYNEDSIFYGLQKASILFDNKQYPQVIKISKDIANSRILKSDDENFKAYYLQFLSLLRLNDYNQAIKILQILESFPMNFSMVEAYDALLSYANDHNMQTTILTYAPKAIDYQNFKGINLFSPNLEFIYLDALTKINKNEESLAVLTDLLKLKLSDEDRARALYIQALTYERMQNIQAEKESLKQCLEIKSASNWQNLCKSKNQILNQ
notes: PflA of C. jejuni 81-176, residues 16-788; only 16-163 (β-sandwich domain and flexible loop) are resolved in the cryo-EM structure; PflA16-788 was cloned both in pET22b (C-terminal 6×His) and in pET26b (C-terminal Strep-tag); also called PflA_(16–163) (the part resolved in the map)
For B2, the “stoichiometry N” value in assay [4] turned out to be 1.

Source of the values: doi:10.1101/2025.02.19.638559, “The architecture, assembly, and evolution of a complex flagellar motor” (bioRxiv, 2025).
